Source: article PMC4255732, “Structural and functional consequences of removing the N-terminal domain from the magnesium chelatase ChlH subunit of Thermosynechococcus elongatus” (Biochemical Journal, 2014)

Columns and labels:
[1] = target: T1, MgCH (WT ChlH–I–D) (Thermosynechococcus vestitus, UniProt Q8DM52); experiment: continuous fluorescence assay of MgDIX formation at […] nm; format: biochemical; settings: 8 μM DIX, 5 mM ATP, 15 mM MgCl2, 50 mM Mops/KOH pH 7.7, 45 °C, without Gun4
T1 construct: with Magnesium-chelatase subunit ChlI; Magnesium-chelatase subunit ChlD

[2] = target: T2, ΔN159ChlH (Thermosynechococcus vestitus, UniProt Q8DM52); experiment: tryptophan fluorescence quenching; format: binding
T2 construct: gene chlH; N-terminal head domain and linker (159 residues) deleted, starts at Met160; His6-tagged (pET9aHis6); E. coli; about 130 kDa

[3] = target: ΔN159ChlH, N-terminally truncated ChlH subunit of Thermosynechococcus elongatus (Thermosynechococcus elongatus); experiment: FRET or BRET; 0.1 μM ChlH (WT or ΔN159) labelled with Atto 488, titrated with Gun4 labelled with Alexa Fluor 532; quenching of emission at 524 nm; 50 mM Tricine/NaOH, 0.3 M glycerol, 200 mM NaCl, pH 7.7 (methods; the legend says 7.9), 45°C; apparent Kd from eqn (1)
[4] = target: magnesium chelatase ChlH subunit of Thermosynechococcus elongatus, wild type (Thermosynechococcus elongatus); experiment: as above
[5] = target: ΔN159ChlH, N-terminally truncated ChlH subunit of Thermosynechococcus elongatus (Thermosynechococcus elongatus)
[6] = target: magnesium chelatase ChlH subunit of Thermosynechococcus elongatus, wild type (Thermosynechococcus elongatus)

T1 sequence (Q8DM52 1-1326): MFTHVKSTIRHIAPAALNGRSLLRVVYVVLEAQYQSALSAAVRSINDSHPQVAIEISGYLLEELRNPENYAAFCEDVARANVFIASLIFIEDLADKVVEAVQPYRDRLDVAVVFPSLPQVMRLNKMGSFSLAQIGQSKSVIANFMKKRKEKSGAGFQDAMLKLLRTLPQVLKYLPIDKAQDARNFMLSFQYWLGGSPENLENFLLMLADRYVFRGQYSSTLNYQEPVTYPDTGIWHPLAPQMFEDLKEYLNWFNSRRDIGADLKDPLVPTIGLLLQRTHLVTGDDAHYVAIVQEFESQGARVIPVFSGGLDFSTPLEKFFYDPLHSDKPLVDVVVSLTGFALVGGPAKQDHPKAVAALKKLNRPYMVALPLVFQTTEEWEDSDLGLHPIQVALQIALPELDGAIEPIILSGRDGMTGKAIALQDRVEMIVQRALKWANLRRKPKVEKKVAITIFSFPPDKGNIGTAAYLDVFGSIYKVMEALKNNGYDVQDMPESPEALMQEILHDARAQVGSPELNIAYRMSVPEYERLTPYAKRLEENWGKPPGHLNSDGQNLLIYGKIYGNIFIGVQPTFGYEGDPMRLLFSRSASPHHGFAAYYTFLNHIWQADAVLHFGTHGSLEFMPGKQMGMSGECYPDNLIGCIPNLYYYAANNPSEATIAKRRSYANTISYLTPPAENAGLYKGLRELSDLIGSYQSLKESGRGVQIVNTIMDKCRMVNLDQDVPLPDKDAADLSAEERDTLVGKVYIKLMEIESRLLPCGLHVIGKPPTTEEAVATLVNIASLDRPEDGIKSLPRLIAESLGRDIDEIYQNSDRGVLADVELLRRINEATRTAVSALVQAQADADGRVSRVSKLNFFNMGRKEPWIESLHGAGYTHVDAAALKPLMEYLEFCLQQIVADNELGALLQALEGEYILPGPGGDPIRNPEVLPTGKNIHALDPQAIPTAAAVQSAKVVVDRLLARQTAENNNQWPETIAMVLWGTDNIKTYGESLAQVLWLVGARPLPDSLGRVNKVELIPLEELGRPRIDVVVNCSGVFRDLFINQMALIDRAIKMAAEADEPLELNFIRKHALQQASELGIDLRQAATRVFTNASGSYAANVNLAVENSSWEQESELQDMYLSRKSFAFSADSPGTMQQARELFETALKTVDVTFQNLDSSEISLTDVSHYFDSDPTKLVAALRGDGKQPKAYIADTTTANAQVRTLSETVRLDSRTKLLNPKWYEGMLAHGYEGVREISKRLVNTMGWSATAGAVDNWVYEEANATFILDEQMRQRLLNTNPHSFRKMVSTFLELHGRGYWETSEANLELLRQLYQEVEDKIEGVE
T1 sequence (Q8DIS0 13-367 partner): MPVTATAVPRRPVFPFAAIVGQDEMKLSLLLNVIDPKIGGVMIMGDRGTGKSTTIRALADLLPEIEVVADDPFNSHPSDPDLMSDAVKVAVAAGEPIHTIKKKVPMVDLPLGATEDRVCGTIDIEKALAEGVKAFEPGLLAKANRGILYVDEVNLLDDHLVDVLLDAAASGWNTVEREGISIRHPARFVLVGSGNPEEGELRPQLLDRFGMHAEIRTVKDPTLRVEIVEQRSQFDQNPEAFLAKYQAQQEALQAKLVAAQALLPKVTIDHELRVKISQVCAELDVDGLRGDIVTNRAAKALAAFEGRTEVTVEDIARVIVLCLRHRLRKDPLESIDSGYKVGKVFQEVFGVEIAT
T1 sequence (Q8DJ18 1-668 partner): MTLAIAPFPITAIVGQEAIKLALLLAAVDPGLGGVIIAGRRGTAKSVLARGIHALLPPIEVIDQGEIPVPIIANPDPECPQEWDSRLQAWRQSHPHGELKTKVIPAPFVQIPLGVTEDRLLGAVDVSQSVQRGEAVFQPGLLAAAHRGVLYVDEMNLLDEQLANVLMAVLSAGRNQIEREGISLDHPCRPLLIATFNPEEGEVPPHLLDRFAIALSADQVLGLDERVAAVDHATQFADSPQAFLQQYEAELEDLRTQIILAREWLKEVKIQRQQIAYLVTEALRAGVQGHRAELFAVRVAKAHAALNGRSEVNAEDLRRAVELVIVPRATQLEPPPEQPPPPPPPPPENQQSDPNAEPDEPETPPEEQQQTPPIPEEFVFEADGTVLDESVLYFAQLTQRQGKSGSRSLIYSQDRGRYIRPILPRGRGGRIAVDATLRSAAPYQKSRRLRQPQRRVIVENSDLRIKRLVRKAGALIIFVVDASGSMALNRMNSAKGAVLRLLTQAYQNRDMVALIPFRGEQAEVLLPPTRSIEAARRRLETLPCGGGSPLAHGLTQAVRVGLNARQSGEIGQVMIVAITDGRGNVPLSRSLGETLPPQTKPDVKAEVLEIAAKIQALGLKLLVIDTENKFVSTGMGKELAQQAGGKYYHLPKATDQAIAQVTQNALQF
T2 sequence (Q8DM52 entry or part of it, stated change not applied): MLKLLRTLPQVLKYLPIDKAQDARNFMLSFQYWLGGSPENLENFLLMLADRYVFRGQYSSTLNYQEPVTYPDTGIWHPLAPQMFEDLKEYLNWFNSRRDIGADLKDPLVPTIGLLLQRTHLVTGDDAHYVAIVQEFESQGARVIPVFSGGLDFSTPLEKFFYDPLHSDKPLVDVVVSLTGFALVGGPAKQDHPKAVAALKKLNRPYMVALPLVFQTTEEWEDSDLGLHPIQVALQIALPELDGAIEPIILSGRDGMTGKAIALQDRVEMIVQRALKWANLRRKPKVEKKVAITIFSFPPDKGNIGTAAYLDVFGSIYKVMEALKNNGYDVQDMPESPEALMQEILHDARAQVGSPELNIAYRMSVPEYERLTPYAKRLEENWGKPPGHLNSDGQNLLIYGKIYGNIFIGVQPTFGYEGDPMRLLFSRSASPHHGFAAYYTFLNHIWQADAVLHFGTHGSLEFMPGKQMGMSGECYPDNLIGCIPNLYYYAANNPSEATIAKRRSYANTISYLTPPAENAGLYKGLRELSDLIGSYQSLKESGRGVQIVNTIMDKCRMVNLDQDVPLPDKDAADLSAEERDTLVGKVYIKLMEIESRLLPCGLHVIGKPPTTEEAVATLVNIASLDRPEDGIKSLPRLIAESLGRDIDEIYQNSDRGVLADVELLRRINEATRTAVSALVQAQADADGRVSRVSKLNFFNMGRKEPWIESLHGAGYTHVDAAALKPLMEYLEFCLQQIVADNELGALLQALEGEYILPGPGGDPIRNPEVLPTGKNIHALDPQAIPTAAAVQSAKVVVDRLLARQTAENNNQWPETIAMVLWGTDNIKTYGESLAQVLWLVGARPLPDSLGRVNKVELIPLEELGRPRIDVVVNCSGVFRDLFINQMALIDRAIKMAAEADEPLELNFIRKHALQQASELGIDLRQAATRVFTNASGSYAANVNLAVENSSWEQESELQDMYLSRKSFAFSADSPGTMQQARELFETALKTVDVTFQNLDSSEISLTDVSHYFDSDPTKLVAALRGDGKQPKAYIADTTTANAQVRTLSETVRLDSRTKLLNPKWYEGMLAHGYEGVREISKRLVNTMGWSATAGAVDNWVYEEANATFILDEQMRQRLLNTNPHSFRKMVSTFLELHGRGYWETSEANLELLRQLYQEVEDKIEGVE

| Kd [2] [µM] | Kd [3] [µM] | Kd [4] [µM] | Kapp from steady-state magnesium chelatase rates against [Gun4] (0.1 μM ChlD, 0.2 μM ChlI, 0.4 μM ΔN159ChlH, 45°C, eqn (2), nd held at 0.4) [5] [µM] | Kapp from steady-state magnesium chelatase rates against [Gun4] (0.1 μM ChlD, 0.2 μM ChlI, 0.4 μM ChlH, 45°C, eqn (2), nd held at 0.4) [6] [µM] | Molecule | continuous fluorescence assay of MgDIX formation at 580 nm [1] |
| --- | --- | --- | --- | --- | --- | --- |
| 1.06 ± 0.09 | – | – | – | – | CC1=C(CCC(=O)O)c2cc3nc(cc4[nH]c(cc4C)cc4[nH]c(cc1n2)cc4C)C(C)=C3CCC(=O)O [DIX] | assayed for in vitro MgCH activity by continuously monitoring fluorescence from the MgDIX product |
| – | 0.016 | 0.009 | 0.05 | 0.39 | Gun4 protein of Thermosynechococcus elongatus (natural protein) | – |
